Laboratory results published in paper PMC8442553 (Science (New York, N.Y.), 2019).

T1: Sth1 (yeast, UniProt P32597 1-1359)
T1 sequence: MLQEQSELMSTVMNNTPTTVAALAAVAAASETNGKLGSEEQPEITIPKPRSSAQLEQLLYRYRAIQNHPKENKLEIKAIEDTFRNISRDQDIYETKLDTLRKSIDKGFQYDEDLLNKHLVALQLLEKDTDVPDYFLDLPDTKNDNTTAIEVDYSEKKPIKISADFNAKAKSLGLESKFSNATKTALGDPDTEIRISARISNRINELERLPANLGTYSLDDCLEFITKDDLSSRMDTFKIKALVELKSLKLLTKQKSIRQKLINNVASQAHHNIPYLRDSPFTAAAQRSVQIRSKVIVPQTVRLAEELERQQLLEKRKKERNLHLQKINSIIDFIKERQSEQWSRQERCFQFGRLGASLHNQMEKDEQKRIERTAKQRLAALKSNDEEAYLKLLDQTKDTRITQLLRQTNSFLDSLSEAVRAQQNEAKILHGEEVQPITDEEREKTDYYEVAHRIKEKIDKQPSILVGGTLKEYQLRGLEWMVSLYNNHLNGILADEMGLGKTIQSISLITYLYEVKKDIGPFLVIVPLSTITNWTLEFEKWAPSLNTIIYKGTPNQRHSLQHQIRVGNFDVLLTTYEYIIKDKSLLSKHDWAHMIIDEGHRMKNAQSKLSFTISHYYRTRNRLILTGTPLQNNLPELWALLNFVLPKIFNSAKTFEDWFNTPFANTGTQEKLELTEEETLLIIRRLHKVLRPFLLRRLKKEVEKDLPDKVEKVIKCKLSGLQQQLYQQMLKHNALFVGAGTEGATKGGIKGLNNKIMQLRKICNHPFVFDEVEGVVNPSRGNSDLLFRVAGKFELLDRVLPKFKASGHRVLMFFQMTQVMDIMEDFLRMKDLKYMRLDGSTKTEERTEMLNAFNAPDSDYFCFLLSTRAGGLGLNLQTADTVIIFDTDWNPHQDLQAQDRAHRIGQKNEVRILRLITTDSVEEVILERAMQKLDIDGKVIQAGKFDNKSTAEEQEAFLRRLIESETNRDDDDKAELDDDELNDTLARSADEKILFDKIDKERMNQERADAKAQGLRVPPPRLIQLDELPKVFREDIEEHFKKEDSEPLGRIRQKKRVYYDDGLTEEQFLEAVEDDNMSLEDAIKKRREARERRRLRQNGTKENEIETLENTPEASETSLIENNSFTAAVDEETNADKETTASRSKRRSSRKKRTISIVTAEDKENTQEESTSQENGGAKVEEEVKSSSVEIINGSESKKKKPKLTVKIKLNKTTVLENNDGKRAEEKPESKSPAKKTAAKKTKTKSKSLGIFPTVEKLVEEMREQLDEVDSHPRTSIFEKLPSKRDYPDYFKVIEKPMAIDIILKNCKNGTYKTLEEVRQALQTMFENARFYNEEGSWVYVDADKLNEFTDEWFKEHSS

T2: Rsc3 (yeast, UniProt Q06639 1-885)
T2 sequence: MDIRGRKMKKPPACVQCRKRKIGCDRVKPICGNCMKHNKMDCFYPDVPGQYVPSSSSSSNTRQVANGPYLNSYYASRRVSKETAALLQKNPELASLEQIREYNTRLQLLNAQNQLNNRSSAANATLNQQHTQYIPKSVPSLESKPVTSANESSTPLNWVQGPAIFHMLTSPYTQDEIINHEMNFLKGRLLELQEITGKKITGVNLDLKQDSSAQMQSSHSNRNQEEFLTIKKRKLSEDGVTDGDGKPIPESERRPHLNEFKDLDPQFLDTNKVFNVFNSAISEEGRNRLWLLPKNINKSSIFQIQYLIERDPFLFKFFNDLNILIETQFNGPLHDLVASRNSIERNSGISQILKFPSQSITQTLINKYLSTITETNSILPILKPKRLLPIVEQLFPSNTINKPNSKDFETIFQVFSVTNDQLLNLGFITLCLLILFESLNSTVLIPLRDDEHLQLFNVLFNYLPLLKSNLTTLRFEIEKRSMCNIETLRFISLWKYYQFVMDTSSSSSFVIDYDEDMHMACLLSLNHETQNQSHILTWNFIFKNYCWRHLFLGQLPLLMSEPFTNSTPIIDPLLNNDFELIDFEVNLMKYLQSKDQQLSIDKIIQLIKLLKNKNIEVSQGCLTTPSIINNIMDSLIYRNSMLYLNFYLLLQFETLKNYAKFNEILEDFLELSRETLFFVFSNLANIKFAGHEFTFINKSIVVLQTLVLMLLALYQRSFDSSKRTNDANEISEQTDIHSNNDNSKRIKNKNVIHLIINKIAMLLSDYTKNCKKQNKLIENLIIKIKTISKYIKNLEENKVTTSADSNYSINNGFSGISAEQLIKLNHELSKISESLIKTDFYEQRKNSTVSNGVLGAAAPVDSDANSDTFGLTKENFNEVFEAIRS

T3: Rsc8 (yeast, UniProt P43609 1-557)
T3 sequence: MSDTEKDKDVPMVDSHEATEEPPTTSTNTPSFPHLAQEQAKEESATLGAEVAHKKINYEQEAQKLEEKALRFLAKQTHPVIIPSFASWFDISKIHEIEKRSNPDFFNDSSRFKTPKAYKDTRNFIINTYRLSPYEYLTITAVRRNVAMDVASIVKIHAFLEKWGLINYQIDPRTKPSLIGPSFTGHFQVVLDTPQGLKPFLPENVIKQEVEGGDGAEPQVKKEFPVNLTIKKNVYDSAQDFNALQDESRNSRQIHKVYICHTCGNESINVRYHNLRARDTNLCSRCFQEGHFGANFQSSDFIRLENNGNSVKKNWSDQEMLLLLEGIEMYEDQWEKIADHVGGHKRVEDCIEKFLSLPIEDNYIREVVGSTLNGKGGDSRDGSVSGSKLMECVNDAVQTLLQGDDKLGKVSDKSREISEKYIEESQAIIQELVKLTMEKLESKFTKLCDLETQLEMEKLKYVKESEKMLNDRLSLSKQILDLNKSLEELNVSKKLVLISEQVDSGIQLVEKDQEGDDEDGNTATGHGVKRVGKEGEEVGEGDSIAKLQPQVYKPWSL


What was measured:
Assay in all cases: cryo-EM structure
[1] = target: T1, Sth1
[2] = target: T2, Rsc3
[3] = target: T3, Rsc8

| Binder | binding result [1] | binding result [2] | binding result [3] |
| --- | --- | --- | --- |
| Arp7 (natural protein, yeast) MTLNRKCVVIHNGSHRTVAGFSNVELPQCIIPSSYIKRTDEGGEAEFIFGTYNMIDAAAEKRNGDEVYTLVDSQGLPYNWDALEMQWRYLYDTQLKVSPEELPLVITMPATNGKPDMAILERYYELAFDKLNVPVFQIVIEPLAIALSMGKSSAFVIDIGASGCNVTPIIDGIVVKNAVVRSKFGGDFLDFQVHERLAPLIKEENDMENMADEQKRSTDVWYEASTWIQQFKSTMLQVSEKDLFELERYYKEQADIYAKQQEQLKQMDQQLQYTALTGSPNNPLVQKKNFLFKPLNKTLTLDLKECYQFAEYLFKPQLISDKFSPEDGLGPLMAKSVKKAGASINSMKANTSTNPNGLGTSHINTNVGDNNSTASSSNISPEQVYSLLLTNVIITGSTSLIEGMEQRIIKELSIRFPQYKLTTFANQVMMDRKIQGWLGALTMANLPSWSLGKWYSKEDYETLKRDRKQSQATNATN | binds |  |  |
| Rsc30 (natural protein, yeast) MMDMQVRKVRKPPACTQCRKRKIGCDRAKPICGNCVKYNKPDCFYPDGPGKMVAVPSASGMSTHGNGQGSNHFSQGNGVNQKNVMIQTQYPIMQTSIEAFNFSFNPSVDTAMQWTKAASYQNNNTNNNTAPRQNSSTVSSNVHGNTIVRSDSPDVPSMDQIREYNTRLQLVNAQSFDYTDNPYSFNVGINQDSAVFDLMTSPFTQEEVLIKEIDFLKNKLLDLQSLQLKSLKEKSNLNADNTTANKINKTGENSKKGKVDGKRAGFDHQTSRTSQSSQKYFTALTITDVQSLVQVKPLKDTPNYLFTKNFIIFRDHYLFKFYNILHDICHINQFKVSPPNNKNHQQYMEVCKVNFPPKAIIIETLNSESLNNLNIEEFLPIFDKTLLLEFVHNSFPNGDTCPSFSTVDLPLSQLTKLGELTVLLLLLNDSMTLFNKQAINNHVSALMNNLRLIRSQITLINLEYYDQETIKFIAITKFYESLYMHDDHKSSLDEDLSCLLSFQIKDFKLFHFLKKMYYSRHSLLGQSSFMVPAAENLSPIPASIDTNDIPLIANDLKLLETQAKLINILQGVPFYLPVNLTKIESLLETLTMGVSNTVDLYFHDNEVRKEWKDTLNFINTIVYTNFFLFVQNESSLSMAVQHSSNNNKTSNSERCAKDLMKIISNMHIFYSITFNFIFPIKSIKSFSSGNNRFHSNGKEFLFANHFIEILQNFIAITFAIFQRCEVILYDEFYKNLSNEEINVQLLLIHDKILEILKKIEIIVSFLRDEMNSNGSFKSIKGFNKVLNLIKYMLRFSKKKQNFARNSDNNNVTDYSQSAKNKNVLLKFPVSELNRIYLKFKEISDFLMEREVVQRSIIIDKDLESDNLGITTANFNDFYDAFYN |  | binds |  |
| Rtt102 (natural protein, yeast) MDPQTLITKANKVSYYGNPTSKESWRYDWYQPSKVSSNVQQPQQQLGDMENNLEKYPFRYKTWLRNQEDEKNLQRESCEDILDLKEFDRRILKKSLMTSHTKGDTSKATGAPSANQGDEALSVDDIRGAVGNSEAIPGLSAGVNNDNTKESKDVKMN | binds |  |  |
| Arp9 (natural protein, yeast) MAPFRQDSILIIYPRSQTTLVQFGLNEETFTVPELEIPTQIYRTTRQDGSYTYHSTNKDNKAELIKPIQNGEIIDISAFTQFLRLIFVSILSDRANKNQDAFEAELSNIPLLLITHHSWSQSDLEIITQYVFESLEINNLIQLPASLAATYSMISLQNCCIIDVGTHHTDIIPIVDYAQLDHLVSSIPMGGQSINDSLKKLLPQWDDDQIESLKKSPIFEVLSDDAKKLSSFDFGNENEDEDEGTLNVAEIITSGRDTREVLEERERGQKVKNVKNSDLEFNTFWDEKGNEIKVGKQRFQGCNNLIKNISNRVGLTLDNIDDINKAKAVWENIIIVGGTTSISGFKEALLGQLLKDHLIIEPEEEKSKREEEAKSVLPAATKKKSKFMTNSTAFVPTIEYVQCPTVIKLAKYPDYFPEWKKSGYSEIIFLGAQIVSKQIFTHPKDTFYITREKYNMKGPAALWDVQF | binds |  |  |

Second part, the binder after the results:

| binding result [1] | binding result [2] | binding result [3] | Binder |
| --- | --- | --- | --- |
| binds |  | binds | Rsc58 (natural protein, yeast) MTESVGGNKLVDFLVNVQSILNAASVKCHVVDESFPAKFFEKNPDKIYESYCKFIKNRSNSEGLIRNEDKLVLTTINKRFENGEYEPIQGGFYKLYHDIKLVCTILIHFYPQGTRNYQLVDKFYKFSSELLLRECCRIGIALTQTNNIKSRSGKLLSGNEMDEYDDDDATELDKIISYDFIKISMNYTVPISQTYQIRTKDMDLFSSIISKSNLDKRPHELPNTNFKINNVLPQTDIENEAPRLGFVGANTSNIPDPTLPPTEMMTRFLHPNWYALPTTVWLKYGNYNSWAPSFNENGTVVDSTTRGLIWLERIGYMDLYEKNEKKVKQEELLNTNEEGINRKQNDENNKNVDGKSNGVQDDGGDNDNDATIASANSESTENKEQFIIKLQNLYNWTPSNYIGDDEIENFRNGTPDKLVSDSLLKLKRLRKERILNKVLKPTTEERELYFKVKRILKEVILAKKVSKVPINNVRAFPVLQTNYNGSIPVVRAQPGRKRKHKK |
|  |  | binds | Htl1 (natural protein, yeast) MSQNNTISSMNPERAYNNVTLKNLTAFQLLSQRENICELLNLVESTERHNSIINPERQRMSLEEMKKMLDALKNERKK |
|  |  | binds | Rsc7 (natural protein, yeast) MSDSEGGLASEVEHEKRSRSTSNRPNYAIDTEDLDIDENDENEDDDYREEEANEGVNEEEISDEEEQINKSGRNKRRHVDEEEDLSEDKGVTRSRNRSKFKKPVFPGIDDAEENLNPLKVVNEEYVLPDDPEGETKITADGDLLGGREFLVRTFTLTEKGNRKFMLATEPARIVGFRDSYLFFQTHPNLYKFILNQTQKNDLIDRGVLPYSYRNRQIALVTARGVFKEFGAKIIRGGKHITDDYYASELRTKGNVIEGKLAGDPIDKSARALETMMYPASENGINPAKNQVEFFEHRPHGHMSNSNIIASGSKLSSTNWLYQHSAACSRFNSDLFYDRVKVLLVDQQGLRDAYTNILHIPESTQSTTVLGWRRSKNDSPSDTSIVYETVIHDNDLNKPKTGLSEIPKEIYEDVVDEDVLRAITEQQNFEKCNEYI |
